From patent US20220401536A1 (published 2022) come the findings set out here.

For test [1], the target named is mouse PD-1 (endogenous, on mouse CD4+ and CD8+ T cells) (mouse) (UniProt Q02242). Briefly: cell-based or functional assay.
For test [2], the target named is T1, DD1α-HA (HA-tagged DD1α expressed in 293T cells or on Jurkat cells) (human, UniProt Q9H7M9 33-311).
T1 construct: also called Jurkat/DD1α; DD1α-transfected Jurkat cells; not shown: HA tag
Briefly: competition with DD1α-Ig and PD-1-Ig for binding to Jurkat cells transfected with DD1α, flow cytometry. Background: A flow cytometer gives signals particle by particle.

mouse PD-1 (endogenous, on mouse CD4+ and CD8+ T cells) (mouse), sequence (Q02242 25-288): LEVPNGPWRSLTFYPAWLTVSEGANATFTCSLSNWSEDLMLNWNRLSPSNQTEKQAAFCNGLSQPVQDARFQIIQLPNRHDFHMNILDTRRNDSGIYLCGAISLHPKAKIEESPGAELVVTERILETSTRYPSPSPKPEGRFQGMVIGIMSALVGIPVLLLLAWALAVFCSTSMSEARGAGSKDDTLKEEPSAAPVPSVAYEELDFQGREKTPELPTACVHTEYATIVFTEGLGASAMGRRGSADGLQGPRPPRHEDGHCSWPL

B1: mouse DD1α (endogenous, on mouse T cells or CD11b+Gr-1+ MDSCs) (receptor, UniProt Q9D659 33-308, looked up)
chain: FKVTTPYSLYVCPEGQNATLTCRILGPVSKGHDVTIYKTWYLSSRGEVQMCKEHRPIRNFTLQHLQHHGSHLKANASHDQPQKHGLELASDHHGNFSITLRNVTPRDSGLYCCLVIELKNHHPEQRFYGSMELQVQAGKGSGSTCMASNEQDSDSITAAALATGACIVGILCLPLILLLVYKQRQVASHRRAQELVRMDSNTQGIENPGFETTPPFQGMPEAKTRPPLSYVAQRQPSESGRYLLSDPSTPLSPPGPGDVFFPSLDPVPDSPNSEAI
For the molecule B1, in test [1], the CFSE- and Far Red-double-positive events: DD1α-/- CD11b+Gr-1+ MDSCs with PD-1-/- CD8+ T cells came to 1.36%; the CFSE- and Far Red-double-positive events: DD1α-null CD11b+Gr-1+ MDSCs with Wt CD8+ T cells was 7.1%; the CFSE- and Far Red-double-positive events: Wt CD11b+Gr-1+ MDSCs with PD-1-/- CD8+ T cells was determined as 6.59%; the CFSE- and Far Red-double-positive events: Wt CD11b+Gr-1+ MDSCs with Wt CD8+ T cells stood at 22%. Moreover, in test [1], the proliferation of CD4+ T cells (CFSE dilution) with DD1α-/- CD11b+Gr-1high MDSCs came out at 70% and the proliferation of CD8+ T cells (CFSE dilution) with DD1α-/- CD11b+Gr-1high MDSCs worked out at 63%.

B2: anti-DD1α monoclonal antibody 2B11 (antibody, V domains shown)
VH: EVQLVESGGDLVKPGGSLKLSCAASGFTFSNYGMSWVRQTPDKRLEYVATINSGGSYTYYPDSVKGRFTISRDNAKTTLYLQMSSLKSEDTAMYYCARIYDYDGDYYALDYWGQGTSVTVSS
VL: DVLMTQTPLSLPVSLGDQASISCRSSQSIVHTNGNTYLEWYLQKPGQSPKLLIYKVSNRFSGVPDRFSGSGSGTDFTLKISRVEAEDLGVYYCFQGSHVPWTFGGGTKLEIK
notes: Purified from hybridoma; also called DD1α-specific Ab 2B11
B2: the binding result in test [2] is “binds”.
